Residue numbers refer to the chain shown, from its start. Numbers in names are those of the source.
B1: WT GPRC5D expressed on HEK293T cells, Q9NZD1 E83A (protein)
chain: MYKDCIESTGDYFLLCDAEGPWGIILESLAILGIVVTILLLLAFLFLMRKIQDCSQWNVLPTQLLFLLSVLGLFGLAFAFIIALNQQTAPVRYFLFGVLFALCFSCLLAHASNLVKLVRGCVSFSWTTILCIAIGCSLLQIIIATEYVTLIMTRGMMFVNMTPCQLNVDFVVLLVYVLFLMALTFFVSKATFCGPCENWKQHGRLIFITVLFSIIIWVVWISMLLRGNPQFQRQPQWDDPVVCIALVTNAWVFLLLYIVPELCILYRSCRQECPLQGNACPVTAYQHSFQVENQELSRARDSDGAEEDVALTSYGTPIQPQTVDPTQECFIPQAKLSPQQDAGGV
B2: WT GPRC5D expressed on HEK293T cells, Q9NZD1 L15A (protein)
chain: B1 chain with L15A, A83E
B3: WT GPRC5D expressed on HEK293T cells, Q9NZD1 C16A (protein)
chain: B1 chain with C16A, A83E
B4: WT GPRC5D expressed on HEK293T cells, Q9NZD1 D11A (protein)
chain: B1 chain with D11A, A83E
B5: WT GPRC5D expressed on HEK293T cells, Q9NZD1 S8A (protein)
chain: B1 chain with S8A, A83E
B6: WT GPRC5D expressed on HEK293T cells, Q9NZD1 Q236A (protein)
chain: B1 chain with A83E, Q236A
B7: WT GPRC5D expressed on HEK293T cells, Q9NZD1 P235A (protein)
chain: B1 chain with A83E, P235A
B8: WT GPRC5D expressed on HEK293T cells, Q9NZD1 T9A (protein)
chain: B1 chain with T9A, A83E
B9: WT GPRC5D expressed on HEK293T cells, Q9NZD1 S8G; D11G; L15G; C16G; D17G; E83G; L84G; R154G; V159G; N160G; T162G; P163G; L166G; P235G; Q236G (protein)
chain: MYKDCIEGTGGYFLGGGAEGPWGIILESLAILGIVVTILLLLAFLFLMRKIQDCSQWNVLPTQLLFLLSVLGLFGLAFAFIIGGNQQTAPVRYFLFGVLFALCFSCLLAHASNLVKLVRGCVSFSWTTILCIAIGCSLLQIIIATEYVTLIMTGGMMFGGMGGCQGNVDFVVLLVYVLFLMALTFFVSKATFCGPCENWKQHGRLIFITVLFSIIIWVVWISMLLRGNPQFQRQGGWDDPVVCIALVTNAWVFLLLYIVPELCILYRSCRQECPLQGNACPVTAYQHSFQVENQELSRARDSDGAEEDVALTSYGTPIQPQTVDPTQECFIPQAKLSPQQDAGGV
B10: WT GPRC5D expressed on HEK293T cells, Q9NZD1 P235G; Q236G (protein)
chain: B1 chain with A83E, P235G, Q236G
B11: WT GPRC5D expressed on HEK293T cells, Q9NZD1 S8G; D11G; L15G; C16G; D17G (protein)
chain: B1 chain with S8G, D11G, L15G, C16G, D17G, A83E
B12: WT GPRC5D expressed on HEK293T cells, Q9NZD1 E83G; L84G (protein)
chain: B1 chain with A83G, L84G
B13: WT GPRC5D expressed on HEK293T cells, Q9NZD1 R154G; V159G; N160G; T162G; P163G; L166G (protein)
chain: B1 chain with A83E, R154G, V159G, N160G, T162G, P163G, L166G

Tests used:
[1] = target: IgG150-18 (scFv150-18 cloned into human IgG format); assay: FACS binding assay; conditions: chain shown with the change, read off a plot
Sequence of IgG150-18 (scFv150-18 cloned into human IgG format) (chain, as listed by the source, chain 1 of 2): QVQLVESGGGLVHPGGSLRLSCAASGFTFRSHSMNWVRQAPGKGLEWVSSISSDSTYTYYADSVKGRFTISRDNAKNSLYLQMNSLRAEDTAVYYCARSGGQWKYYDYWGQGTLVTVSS
Sequence of IgG150-18 (scFv150-18 cloned into human IgG format) (chain, as listed by the source, chain 2 of 2): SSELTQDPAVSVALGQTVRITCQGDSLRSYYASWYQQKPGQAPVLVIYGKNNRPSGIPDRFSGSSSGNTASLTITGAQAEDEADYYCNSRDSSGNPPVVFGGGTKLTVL

[2] = target: IgG150-18 (scFv150-18 cloned into human IgG format); assay: FACS assay on cells; conditions: chain shown with the change; highest antibody concentration point, Log [IgG150_18] (M) about -7.5; parent: est. 100; read off a plot
[3] = 100nM antibody, parent: est. 100

Row | Binder | percent of parent ([1]; 1nM antibody, parent: est. 8) | percent of parent ([1]; 10nM antibody, parent: est. 75) | percent of parent [1, 3] | percent of parent [2]
1 | B1 | 5 % of WT | 72 % of WT | 95 % of WT | –
2 | B2 | – | 38 % of WT | 63 % of WT | –
3 | B3 | – | 1 % of WT | – | –
4 | B4 | – | – | 42 % of WT | –
5 | B5 | 3 % of WT | 65 % of WT | 92 % of WT | –
6 | B6 | – | 53 % of WT | 75 % of WT | –
7 | B7 | – | 43 % of WT | 95 % of WT | –
8 | B8 | 11 % of WT | 82 % of WT | 100 % of WT | –
9 | B9 | – | 1 % of WT | – | 12 % of WT
10 | B10 | – | – | – | 100 % of WT
11 | B11 | – | – | – | 3 % of WT
12 | B12 | – | – | – | 97 % of WT
13 | B13 | – | – | – | 82 % of WT

Reference: article PMC11187071
